Test [1] addresses CD4-induced (CD4i) monoclonal antibody 48d. Description: SPR (BIACORE 2000), MAb 48d amine-coupled to CM5 chip, gp120 as analyte, 25 C.
In test [2] the target is CD4-induced (CD4i) monoclonal antibody 17b. Description: SPR (BIACORE 2000), MAb 17b amine-coupled to CM5 chip, gp120 as analyte, 25 C.
For test [3], the target named is 8x-V3BaL Env (whole Env, on virions or effector cells) (HIV-1). Kind of test: cell-based or functional assay.
In test [4] the target is IIIB-V3BaL Env on luciferase reporter virions (HIV-1). Description: cell-based or functional assay.

Usually Kd stands for a measure of binding affinity in units of concentration. As a reminder, the koff is the first-order rate constant of dissociation. As usually defined, the kon is the rate constant with which the complex forms. A lower kon goes with slow association. In test [1], “8x gp120 (soluble gp120 of the HIV-1/IIIBx 8x Env clone) (from UniProt P04578 33-511)” registered a Kd of 0.006 µM, a koff of 0.001 s⁻¹ and a kon of 200000 M⁻¹ s⁻¹. In test [2], this substance displayed a Kd of 0.015 µM, a koff of 0.002 s⁻¹ and a kon of 100000 M⁻¹ s⁻¹.
Turning to “CD4-induced (CD4i) monoclonal antibody 17b”, in test [3], the concentration for 50% neutralisation of luciferase reporter virus on GHOST-CCR5 cells was found to be 2 ng/mL and the concentration for 90% neutralisation of luciferase reporter virus on GHOST-CCR5 cells was determined as 15 ng/mL. In test [4], this substance registered a concentration for 50% neutralisation of luciferase reporter virus on GHOST-CCR5 cells of 14 ng/mL and a concentration for 90% neutralisation of luciferase reporter virus on GHOST-CCR5 cells of 90 ng/mL.
In test [3], “CD4-induced (CD4i) monoclonal antibody 48d” had a concentration for 50% neutralisation of luciferase reporter virus on GHOST-CCR5 cells of 3 ng/mL, a concentration for 90% neutralisation of luciferase reporter virus on GHOST-CCR5 cells of more than 200 ng/mL and a percent neutralisation at 200 ng/ml of 88%. In test [4], this substance registered a concentration for 50% neutralisation of luciferase reporter virus on GHOST-CCR5 cells of more than 5000 ng/mL and a concentration for 90% neutralisation of luciferase reporter virus on GHOST-CCR5 cells of more than 5000 ng/mL.
With monoclonal antibody 50.1, in test [3], the concentration for 50% neutralisation of reporter virus came out at 45 ng/mL and the concentration for 90% neutralisation of reporter virus turned out to be 610 ng/mL. Besides, in test [4], the concentration for 50% neutralisation of reporter virus turned out to be 95 ng/mL and the concentration for 90% neutralisation of reporter virus is 375 ng/mL.

The values above are taken from US20030091594A1.
